Laboratory results taken from patent US20200330603A1, “PEPTIDES FOR RENAL THERAPY” (FRED HUTCHINSON CANCER RESEARCH CENTER, priority 2015, published 2020).
Ends that are not written are not given here.

Experiments:
[1] = Accumulation of 14C-methylated peptide in renal tissue (Example 3); assay type: in vivo, mice; conditions: 14C autoradiography, iv 30-100 nmol per mouse; 3 hours and 24 hours
Experimental: This example describes accumulation of peptides of this disclosure in renal tissue. ^14C-methylated knotted peptides were intravenously dosed into mice at 30-100 nmol per mouse. […] Cryosectioning was performed on a Bright-Hacker cryotome, taking 40 μm sagittal sections. Collected sections were allowed to freeze dry at −20° C. for 48-72 hours before being exposed to phosphor imager plates. Plates were exposed for 7 days then scanned on a RayTest CR-Bio35 scanner. Analysis was performed with AIDA WBA analysis software.

[2] = Fluorescent peptide delivery to kidneys, whole body fluorescence analysis; assay type: in vivo; conditions: 10 nmol iv, average and standard deviation from two mice
Experimental: This example illustrates fluorescent peptide delivery to kidneys. Peptides were labeled by reaction with NHS esters of Cy5.5 or AlexaFluor 647 (AF647). For comparison, the free […] NHS esters were hydrolyzed to produce unreactive Cy5.5-COOH and AF647-COOH. A dose of 10 nmol of dye-labeled peptide or dye alone was administered intravenously and fluorescence was measured at 3 hours, 24 hours, and 48 hours after administration. At each time point, mice were frozen and sectioned for whole body fluorescence analysis, which was performed by scanning the sections on the Odyssey 2.1 at 84 um resolution using the 700 channel.
Average and standard deviation are presented from two mice per group.

pepsin = experiment: Peptide stability in the presence of pepsin, RP-HPLC; assay type: in vitro ADME; conditions: 20 μg pepsin, pH 1.05, 30 minutes at 37.5° C.
Experimental: (§1) This example describes peptide stability in the presence of pepsin, trypsin, a reducing agent, or elevated temperature. Peptides were first suspended in 500 µl of ddH2O to a stock concentration of 2 mg/ml. […] These reactions were then quenched with 5 μg of soybean trypsin inhibitor (I) and, in some cases, 10 mM dithiothreitol (DTT). […] Temperature stability was tested by incubating peptides in non-reducing conditions at 70° C. for 1 hour. Stability was evaluated by RP-HPLC.

[3] = Plasma creatinine, Jaffe reaction method (Example 14); assay type: in vivo, mice; conditions: Table 4; 100 nmol iv; time not stated for this column (mRNAs at four hours)
Experimental: (§2) This example illustrates assessment of renal injury by peptides of this disclosure. Mice were injected intravenously at a dose of 100 nmol, which is approximately 16 mg/kg. PBS was administered as a negative control. At 24 hours post-peptide administration, mice were euthanized and plasma blood urea nitrogen (BUN) and plasma creatinine were measured. The blood urea nitrogen (BUN) assay was performed to assess renal toxicity with a commercially available kit. Plasma creatinine concentrations were determined using the colorimetrically corrected Jaffe reaction method. Additionally, the kidneys from these mice were removed, sectioned, and stained using periodic acid Schiff (PAS). […] Histological analysis corroborated the mRNA/protein data.

trypsin = experiment: Peptide stability in the presence of trypsin, RP-HPLC; assay type: in vitro ADME; conditions: 5 μg trypsin, pH 7.0, 30 minutes at 37.5° C.
Experimental: as §1

[4] = Plasma BUN, assessment of renal injury (Example 14); assay type: in vivo, mice; conditions: Table 4; 100 nmol iv; time not stated for this column (mRNAs at four hours)
Experimental: as §2

HO-1 mRNA = experiment: mRNA by RT-PCR, HO-1; assay type: in vivo, mice; conditions: four hours post-peptide administration
MCP-1 mRNA = experiment: Stress-induced mRNA by RT-PCR, MCP-1; assay type: in vivo, mice; conditions: four hours post-peptide administration
Experimental: (§3) At four hours post-peptide administration, potential renal injury was assessed by measuring three stress-induced mRNAs (MCP-1, NGAL, and TNFa).

[5] = Peptide stability to a reducing agent (DTT), RP-HPLC; assay type: physicochemical; conditions: 10 mM DTT in PBS, room temperature, 30 minutes
Experimental: as §1

TNFa mRNA = experiment: Stress-induced mRNA by RT-PCR, TNFa; assay type: in vivo, mice; conditions: four hours post-peptide administration
Experimental: as §3

NGAL mRNA = experiment: Stress-induced mRNA by RT-PCR, NGAL; assay type: in vivo, mice; conditions: four hours post-peptide administration
Experimental: as §3

[6] = Whole body autoradiography of 14C labeled peptides, renal cortex and blood; assay type: in vivo, mice; conditions: for Signal ratio Kidney:Blood (3 hours) / Signal ratio Kidney:Blood (24 hours): renal cortex vs blood from the ventricle, 100 nmol iv; for Pixel density-Bkg/area (3 hours) / Pixel density-Bkg/area (24 hours): renal cortex, 100 nmol 14C labeled peptide iv
Excerpt: This example describes radiolabeling of peptides of this disclosure. Several knotted peptides were radiolabeled by reductive methylation with ^14C formaldehyde and sodium cyanoborohydride with standard techniques. The sequences were engineered to have the amino acids, “G” and “S” at the N terminus. See Methods in Enzymology V91:1983 p. 570 and JBC 254(11):1979 p. 4359. An excess of formaldehyde was used to ensure complete methylation (dimethylation of every free amine). The labeled peptides were isolated via solid-phase extraction on Strata-X columns (Phenomenex 8B-S100-AAK), rinsed with water with 5% methanol, and recovered in methanol with 2% formic acid. Solvent was subsequently removed in a blowdown evaporator with gentle heat and a stream of nitrogen gas. The final product was verified and characterized by high performance liquid chromatography (HPLC).
This example illustrates accumulation of peptides of the present disclosure in kidneys measured by whole body autoradiography. Peptides of the present disclosure were radiolabeled as described in EXAMPLE 2. 100 nmol of ^14C labeled peptides were administered intravenously in mice. Radiolabeled peptide signal was quantified in the renal cortex and blood from the ventricle in 2-3 sections per mouse in 2 mice total. Whole body autoradiography analysis was performed with AIDA.
SEQ ID NO: 55 and SEQ ID NO: 119 ([…]), a linearized version of SEQ ID NO: 55, were radiolabeled with ^14C as described in EXAMPLE 2 and administered intravenously in mice at a dose of 100 nmol. Radiolabeled peptide signal was quantified in the renal cortex and blood from the ventricle in 2-3 sections per mouse in 2 mice total. Whole body autoradiography analysis was performed with AIDA.

[7] = Competitive renal uptake studies, fluorescence imaging of whole organs; assay type: in vivo, mice; conditions: 4 hours
Experimental: This example describes competitive uptake studies of peptides of this disclosure in kidneys. Peptides of this disclosure were compared to known kidney homers (“competitors”) to assess the efficiency and strength of kidney targeting. Three competitors were tested against a peptide of SEQ ID NO: 4, and kidney uptake was quantified by fluorescence imaging of whole organs on a Spectrum IVIS imager.
Kidneys from uninjected mice were used as a negative control. Fluorescence signal in each group was quantified to determine the average radiant efficiency in the kidneys from three mice per cohort. Data are shown as mean and error bars indicate standard deviation. A p-value of 0.0081 was calculated by a T-test, and the error bars indicate standard deviation. In this experiment, the unlabeled SEQ ID NO: 4 peptide competed with the SEQ ID NO: 4-AF647 as shown by decreased fluorescence and thus, decreased accumulation of the dye labeled peptide in the kidney. […] Fluorescence signal in each group was quantified to determine the average radiant efficiency in the kidneys from three mice per cohort. Data are shown as mean and error bars indicate standard deviation. Kidney uptake of a peptide of SEQ ID NO: 4-AF647 was not dampened by SEQ ID NO: 121 peptide even at the highest ratio of competitor. […] Fluorescence signal in each group was quantified to determine the average radiant efficiency in the kidneys from three mice per cohort. Data are shown as mean and error bars indicate standard deviation. A p-value of 0.015 was calculated by a Student's unpaired t-test.

[8] = Confocal imaging of kidneys 30 minutes after administration; assay type: in vivo, mice; conditions: 10 nmol
Excerpt: Kidneys were isolated, sectioned, and imaged using a Zeiss confocal microscopy.

Molecule	renal signal pattern [1]	Plasma Creatinine [3]	Plasma BUN [4]	mHO-1/GAPDH (HO-1 mRNA)	mMCP-1/GAPDH (MCP-1 mRNA)	mTNFa/GAPDH (TNFa mRNA)	mNGAL/GAPDH (NGAL mRNA)	Signal ratio Kidney:Blood (3 hours) [6]	Signal ratio Kidney:Blood (24 hours) [6]	Pixel density-Bkg/area (3 hours) [6]	Pixel density-Bkg/area (24 hours) [6]	also measured
CNCCC(Oc1ccc(C(F)(F)F)cc1)c1ccccc1 (stereo not shown) [fluoxetine, reference compound]	non-interactive passage through the kidneys											
Cy5.5												Fluorescence Signal in Kidneys 3 hours ([2]; 3 hours): 416 ± 170; Fluorescence Signal in Kidneys 24 hours ([2]; 24 hours): 88 ± 8; Fluorescence Signal in Kidneys 48 hours ([2]; 48 hours): 58 ± 11
GSQFTNVSCTTSRECWSVCQRLHNTSRGRCMNRRCRCYS [SEQ ID NO: 5]		0.23 mg/dL	23 mg/dL	0.62	0.79	2.55	1.76	27.2	6.4	1.40E+07	1.81E+06	Pepsin (pepsin): Resistant; Trypsin (trypsin): Resistant; Reduction [5]: Resistant
GSSCEPGRTFRDRCNTCRCGADGRSAACTLRACPNQ [SEQ ID NO: 4]	interacting with the kidney, likely cells of the proximal tubule											renal uptake in competition with unlabeled SEQ ID NO: 4 (FIG. 10) ([7]; 2 nmol SEQ ID NO: 4-AF647 co-injected with 0, 10 or 50 nmol unlabeled peptide): specific and saturable
GSSCEPGTTFRDRCNTCRCGSDGRSAACTLRACPQ [SEQ ID NO: 46]		0.29 mg/dL	22 mg/dL	0.58	0.64	2.87	1.39	4.7	6	8.83E+05	1.49E+06	
SEQ ID NO: 4-AF647: SEQ ID NO: 4 conjugated to AF647 (GSSCEPGRTFRDRCNTCRCGADGRSAACTLRACPNQ; not fully specified; cysteine pairing not given here)												accumulation of dye in the kidney proximal tubules (FIG. 13) [8]: can deliver and accumulate dye when attached as a conjugate in the kidney proximal tubules; renal uptake compared with control peptide-AF647 (FIG. 12) ([7]; 10 nmol iv, p-value of 0.015): significantly higher extent than the control peptide
